Results on four molecules are retold here after patent publication WO2017175058A1 (dated 2017).

To fix the notation:
T1: human VISTA on the surface of cells (human, UniProt Q9H7M9 33-295)
T1 sequence: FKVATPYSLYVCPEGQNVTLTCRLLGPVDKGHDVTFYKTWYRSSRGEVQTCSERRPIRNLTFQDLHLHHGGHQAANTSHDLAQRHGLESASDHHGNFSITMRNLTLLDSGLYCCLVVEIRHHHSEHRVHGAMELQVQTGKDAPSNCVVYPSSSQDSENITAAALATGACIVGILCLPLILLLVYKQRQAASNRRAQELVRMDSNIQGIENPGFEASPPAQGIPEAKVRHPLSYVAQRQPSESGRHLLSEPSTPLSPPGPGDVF

B1: VSTB50 (antibody, human IgG1, V domains shown)
VH: QVQLVQSGSELKKPGASVKVSCKASGYTFTNYGLNWVRQAPGQGLEWMGWINPYTGEPTYADDFKGRFVFSLDTSVSTAYLQICSLKAEDTAVYYCAREGYGNYIFPYWGQGTLVTVSS
VL: DIVMTQTPLSLSVTPGQPASISCRASESVDTYANSLMHWYLQKPGQPPQLLIYRASNLESGVPDRFSGSGSGTDFTLKISRVEAEDVGVYYCQQTNEDPRTFGQGTKLEIK
B2: VSTB116 (antibody, V domains shown)
VH: QVQLVQSGAEVKKPGSSVKVSCKASGGTFSSYAISWVRQAPGQGLEWMGGIIPIFGTANYAQKFQGRVTITADESTSTAYMELSSLRSEDTAVYYCARSSYGWSYEFDYWGQGTLVTVSS
VL: DIQMTQSPSSLSASVGDRVTITCRASQSINTNLNWYQQKPGKAPKLLIYAASSLQSGVPSRFSGSGSGTDFTLTISSLQPEDFATYYCQQARDTPITFGQGTKVEIKR
B3: VSTB53 (antibody, human IgG1, V domains shown)
VH: QVQLVQSGAEVKKPGASVKVSCKASGYTFTHYTIHWVRQAPGQGLEWMGYIIPSSGYSEYNQKFKDRVTMTRDTSTSTVYMELSSLRSEDTAVYYCARGAYDDYYDYYAMDYWGQGTLVTVSS
VL: DIVMTQSPLSLPVTPGEPASISCRSSQTIVHSNGNTYLEWYLQKPGQSPQLLIYKVSNRFSGVPDRFSGSGSGTDFTLKISRVEAEDVGVYYCFQASHVPWTFGQGTKLEIK
B4: VSTB95 (antibody, human IgG1, V domains shown)
VH: EVQLVESGGGLVQPGGSLRLSCAASGFTFRNYGMSWVRQAPGKGLEWVASIISGGSYTYYPDSVKGRFTISRDNAKNSLYLQMNSLRAEDTAVYYCARIYDHDGDYYAMDYWGQGTTVTVSS
VL: DIVMTQSPLSLPVTPGEPASISCRSSQSIVHSNGNTYLEWYLQKPGQSPQLLIYKVSNRFSGVPDRFSGSGSGTDFTLKISRVEAEDVGVYYCFQGSHVPWTFGQGTKLEIK

The test concerns the target T1, human VISTA on the surface of cells. Put plainly: cell-based or functional assay.
In the case of B1, the “IC50, CPM (proliferation), SEB assay” value was -0.74 log10 of antibody concentration and the “IC50, Gamma (IFN-g), SEB assay” value is 1.69 log10 of antibody concentration.

In the case of B2, the “IC50, CPM (proliferation), SEB assay” value was -1.44 log10 of antibody concentration and the “IC50, Gamma (IFN-g), SEB assay” value is -0.35 log10 of antibody concentration.

In the case of B3, the “IC50, CPM (proliferation), SEB assay” value was -1.06 log10 of antibody concentration and the “IC50, Gamma (IFN-g), SEB assay” value is -1.05 log10 of antibody concentration.

On to B4, for which the “IC50, CPM (proliferation), SEB assay” value was -1.12 log10 of antibody concentration and the “IC50, Gamma (IFN-g), SEB assay” value was 0.05 log10 of antibody concentration.
